{
  "source": "paper PMC3232451",
  "about": "(Nature structural & molecular biology, 2011)",
  "key": {"TBL1 F26A (human) [1]": {"biological_target": "TBL1 F26A (human)", "test": "SEC"}, "TBL1 F26A (human) [2]": {"biological_target": "TBL1 F26A (human)", "test": "NMR HSQC spectra"}, "[3]": {"biological_target": "TBL1 wild type (gel filtration and HSQC; limits not stated) (human)", "test": "SEC"}, "[4]": {"biological_target": "TBL1 wild type (gel filtration and HSQC; limits not stated) (human)", "test": "NMR HSQC spectra"}, "His6-TBL1(1-90)": {"biological_target": "T1, His6-TBL1(1-90) (human, UniProt O60907-2 1-90)", "T1 sequence (looked up)": "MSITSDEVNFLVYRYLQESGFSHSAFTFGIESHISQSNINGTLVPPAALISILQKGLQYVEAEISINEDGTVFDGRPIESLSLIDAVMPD", "test": "fluorescence polarisation"}, "crystal structure": {"biological_target": "the molecule itself", "test": "crystal structure"}, "[5]": {"biological_target": "T2, SMRT(167-207), GST removed (human, UniProt Q9Y618 167-207)", "T2 chain (looked up)": "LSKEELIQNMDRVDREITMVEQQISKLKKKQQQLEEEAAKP", "test": "NMR structure"}},
  "note": "Where no end group is shown, it is not given here.",
  "data": [
    {"molecule": "TBL1 F26A (domain or fragment)", "values": [
      {"measurement": "stoichiometry N", "setting": "TBL1 F26A (human) [1]", "value": 2},
      {"measurement": "stoichiometry N", "setting": "TBL1 F26A (human) [2]", "value": 2}
    ]},
    {"molecule": "TBL1 wild type (gel filtration and HSQC; limits not stated) (domain or fragment)", "values": [
      {"measurement": "stoichiometry N", "setting": "[3]", "value": 4},
      {"measurement": "stoichiometry N", "setting": "[4]", "value": 4}
    ]},
    {"molecule": "BODIPY labeled GPS2(1-52) (peptide, UniProt Q13227 1-52, looked up, also: BODIPY label, position not given here) MPALLERPKLSNAMARALHRHIMMERERKRQEEEEVDKMMEQKMKEEQERRK", "values": [
      {"measurement": "Kd", "setting": "His6-TBL1(1-90)", "value": 5.1, "unit": "µM"}
    ]},
    {"molecule": "VQIIYDENRKKAEAAHRILEGLGPQVELPLYNQP (peptide, UniProt Q9Y618 227-260, looked up, also: BODIPY label, position not given here)", "note": "[BODIPY labeled SMRT(227-260)]", "values": [
      {"measurement": "Kd", "setting": "His6-TBL1(1-90)", "value": 14.7, "unit": "µM"}
    ]},
    {"molecule": "His6-TBL1(1-71) (domain or fragment, human, UniProt O60907-2 1-71, looked up) MSITSDEVNFLVYRYLQESGFSHSAFTFGIESHISQSNINGTLVPPAALISILQKGLQYVEAEISINEDGT", "values": [
      {"measurement": "stoichiometry N", "setting": "crystal structure", "value": 4}
    ]},
    {"molecule": "KKEMEERMSLEETKEQILKLEEKLLALQEEKHQLFLQL (domain or fragment, human, UniProt Q13227 53-90, looked up)", "note": "[GPS2(53-90)]", "values": [
      {"measurement": "binding result", "setting": "[5]", "value": "binds"}
    ]}
  ]
}
